Test: yeast display, Sf9 membrane polyspecificity reagent, FACS + sequencing; frameworks hold sequencing errors
Procedure, shortened: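 Polyreactivity labels are assigned by the sorting gate from which each nanobody was recovered. The gates were low and high (top ~1%), set on anti-HA fluorescence for expression and streptavidin fluorescence for reagent binding. Before sorting, galactose-induced (36–48 hours) yeast display cells were stained for 1 hour at 4 °C with 10% biotinylated, detergent-solubilized Sf9 membrane reagent.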
With “QVQLVESGGGLVPAGGSLRLSCAASGSTFHYYTMGWYRQAPGKERELVAAISWRGTSTYYADSVKGRFTISRDNAKNTVYLQMNSLKAEDTGVYYCAVRSSPGAGYYYWGQGTQVTVSS” the “polyreactivity (PSR sort gate)” value was “high polyreactivity”. With “QVQLVESGGGLVPAGGTLRLSCAASGFNFYFNTMGWYRQATGKERELVAAISSGGSTYYADSVKGRFTISRDNAKNTVSFQMNSLKPEDTAVYYCNKDYLQYYPYDYWGHGTQVTVSS” the “polyreactivity (PSR sort gate)” value was “low polyreactivity”. In the case of “QVQLVESGGGLVPARGSLRLSCAASGRTFGPYAMGWYRQAPGKERELVAAITDTGSGTYYADSVKGRFTISRDNSKNTVYLQMNSLKPVDTAVYYCNAVRKYWGQGTQVTVSS”, the “polyreactivity (PSR sort gate)” value is reported as “low polyreactivity”. For “QVQLVESGGGLVQAAGSLRLICAASGSTFPANAMGWYRQEPGKERELVASITKSGGDTYYADSVKGRFTISRDNAKNSVYVQMNSLKPEDTAVYDCAKDYVNQYGVYKVWANNYNYWGQGTQVTVSS”, the “polyreactivity (PSR sort gate)” value was “low polyreactivity”. With “QVQLVESGGGLVQAAGSLRLSCAASGRIFRRYAMGWYRQAPGKERELVAAITNNGANTYYADSVKGRFTISRDNAKNTVYLQMNSLKPEDTAVYDCARKSYPGRPAYRYDYWGQGTQVTVSS” the “polyreactivity (PSR sort gate)” value was “high polyreactivity”. For “QVQLVESGGGLVQAAGSLRLSCAASGRTFYDNAMGWYRQAPGKERELVAAITKSGGRTYYVDSVKGRFTISRDNAKNTVYLQMNSLKPEDTAVYYCAASWPNYLYEYWGQGTQVTVSS”, the “polyreactivity (PSR sort gate)” value was “high polyreactivity”. For “QVQLVESGGGLVQAAGSLRLSCAASGRTFYVYDMGWYRQAPGKERELVAVISSSGSTNYADSVKGRFTISGDNAKNSVYLQMNSLKPEDTAVYDCYRRRWYFFSLDYWGQGTQVTVSS”, the “polyreactivity (PSR sort gate)” value was “high polyreactivity”. With “QVQLVESGGGLVQAAGSLRLSCAASGSIFGVNVMGWYRQAPGKERELVAAITTSGGSTYYADSVKGRFTISRDNAKNTVYLQMNSLKPEDTAVYYCAAEVYYPIFLTFYYRGQGTQVTVSS” the “polyreactivity (PSR sort gate)” value was “high polyreactivity”. With “QVQLVESGGGLVQAAGSLRLSCAASGSIFNRSTMGWSRQAPGKERELVAGISRGGTTYYADSVKGRFTISRDNAKNTVYLQMNSLKPEDTAVFYCAADYGLLYGQLWGYGYWGQGTQVTVSS” the “polyreactivity (PSR sort gate)” value was “high polyreactivity”. For “QVQLVESGGGLVQAAGSLRLSCAASGSTFPYYAMGWYRQAPGQERELVAAIPRSGGSTYSADSVKGRFTISRDHAKNTVYLQMNSLKPEDTAVYYCAAKLAQRYFYRYDYWGPGTQVTVSS”, the “polyreactivity (PSR sort gate)” value was “high polyreactivity”. For “QVQLVESGGGLVQAAGSLRLSCAASGSTFYRNAMGWYRQAPGKERELVASINNGGSTYYADSVKGRFTISRDNAKNTVYLQMNSLKPEDTAVYYCAATESWDYDYWGQGTQVTVSS”, the “polyreactivity (PSR sort gate)” value was “low polyreactivity”. With “QVQLVESGGGLVQAAGSLRLSCAPSGSIYNYTIGWYRQAPGKERELVAAISRSGTRTYYADSVKGRFTISRDNAKNTVYLQMNSLKPEDTAVYYCAARILPPGDNVDDDYWGQGTQVTVSS” the “polyreactivity (PSR sort gate)” value was “high polyreactivity”. In the case of “QVQLVESGGGLVQAAGSLRLSCDASGRIFAYYAMGWYRQAPGKERELVAAISRSGVSTYYADSVKGRFTISRDNAKNTVYLQMNSLKPEDTAVYYCAARWRSGFTSGDYWGQGTQVTVSS”, the “polyreactivity (PSR sort gate)” value is reported as “low polyreactivity”. With “QVQLVESGGGLVQAAGSLRVSCAASGSIFYSNVMGWYRTEPGKERELVARISDAGSTNYADSVKGRFTISRDNAKNTVYLQMNSLKPEDTAVYYCNARLVIYTYDYWGQGTQVTVSS” the “polyreactivity (PSR sort gate)” value was “low polyreactivity”. In the case of “QVQLVESGGGLVQAAGSLRVSCAASGSTFSWNPMGWSIQAPGKERELVAASTSGGRTYYADSVKGRFTISRDNAKNTVYLQMNSLKPADTAVYYCAAYATIYRDMGYWGHGTQVTVSS”, the “polyreactivity (PSR sort gate)” value is reported as “high polyreactivity”. With “QVQLVESGGGLVQAGASLRLSCAASGFIFAINTMGWNLQAPGKETELVAGINWRGSSKYYADSVKGRFTISRDNAKNTVYLQMNSLKPEDTAVYYCAARRFWGSDYDYWGLGTQVTVSS” the “polyreactivity (PSR sort gate)” value was “high polyreactivity”. With “QVQLVESGGGLVQAGASLRLSCAASGFTFDENAMGWYRQAPGINYSGASTYYAHSVKGRFTISRDNAKNTVYIHMNSLQPEDTAVYYCAAEVVAQMNYWGQGTQVTVSS” the “polyreactivity (PSR sort gate)” value was “low polyreactivity”. For “QVQLVESGGGLVQAGASLRLSCAASGFTFGTYVMGWYRQAPGKERELVARITYGGGRTYYADSVKGRFTISRDNAKNTVYLQMNSLNPEDTAVYYSNARVTYSRYFKGYNYWGQGTQVTVSS”, the “polyreactivity (PSR sort gate)” value was “high polyreactivity”. With “QVQLVESGGGLVQAGASLRLSCAASGFTFGWYAMGWSRQARGKERELVAAISYSGGSTYYADSVKGRFTISRDNAKNTVYLQMISLKPEDTAVYYCAALYTGDSGYWGQGTQVTVSS” the “polyreactivity (PSR sort gate)” value was “high polyreactivity”. For “QVQLVESGGGLVQAGASLRLSCAASGGIFYVYDMGWYRQAPGKERELVAVITFTGGSTYYADSVKGRYTISRDNAKNSVYFQKNRLKPEDTAVYYCAADAYQSAYSGEYDVYTEYDYWGQGTQVTVSS”, the “polyreactivity (PSR sort gate)” value was “low polyreactivity”. For “QVQLVESGGGLVQAGASLRLSCAASGRIFGRNAMGWYRQAPGKERELVAAISSGSGSTYYADSVKGRFTISRDNAKHTVYLQLNSLIPEDTAVYYCAATVSTYLAWRGYWGQGTQVTVSS”, the “polyreactivity (PSR sort gate)” value was “high polyreactivity”. In the case of “QVQLVESGGGLVQAGASLRLSCAASGRIFGVYAMGWYRQAPGKDRELVAGINGGDSTYYADSVKGRFTISRDNAKNTVYLQINSLKPEDTAVYYCAAQADESGSNYDYWGQGTQVTVSS”, the “polyreactivity (PSR sort gate)” value is reported as “low polyreactivity”. In the case of “QVQLVESGGGLVQAGASLRLSCAASGRIFNIYALGWYRQAPGKERELVADITSGGTTYADSVKWRFTISRDNAKNTVYLQMNSLKPEDTAVYYCAAVYRYRNRRDYDYWGQGTQVTVSS”, the “polyreactivity (PSR sort gate)” value is reported as “high polyreactivity”. In the case of “QVQLVESGGGLVQAGASLRLSCAASGRIFSKNAMGWYRQAPGKERELVAAISANTGSTYYADSVKGRFTISRDNAKNTVYLQMNILKPEDTAVYYCATTWTIRRYRYTPRLVDYWGQGTQVTVSS”, the “polyreactivity (PSR sort gate)” value is reported as “low polyreactivity”. In the case of “QVQLVESGGGLVQAGASLRLSCAASGRTFGYYAMGWYRQAPGKERELVATISRRGGRTYYADSVKGRFTISRDNAKNTVYLQMNSLKPEDTAVYYCNKYLASYSYSDLVYWGQGTQVTVSS”, the “polyreactivity (PSR sort gate)” value is reported as “high polyreactivity”. For “QVQLVESGGGLVQAGASLRLSCAASGRTFNVYAMGWYRQAPGKERELVASISSGTSTNYADSVKGRFTISRDNAKNTVYLQMNSLKPEDTAVYYCNADFVWNGYSGRIRDYYWGQGTQVTVSS”, the “polyreactivity (PSR sort gate)” value was “low polyreactivity”. For “QVQLVESGGGLVQAGASLRLSCAASGRTFSNYEMGSYRQAPGKERELVAAISGTGGTTYYADSVKGRFTISRVNEKNTVYLQMNSLKPEDTAVYYCAARSHTGYFPPSYYSGQGTQVTVSS”, the “polyreactivity (PSR sort gate)” value was “high polyreactivity”. In the case of “QVQLVESGGGLVQAGASLRLSCAASGRTFWYNAMGGYRQAPGKERELVAAISSTGGRTYYADSVKGRFTISRDNAKNTVYLQMNSLKPEDTAVYYCAARQLSSHYDYWGQGTQVTVSS”, the “polyreactivity (PSR sort gate)” value is reported as “low polyreactivity”. For “QVQLVESGGGLVQAGASLRLSCAASGSIFKDNAMGWYRQAPGKERELVAAISWNGGSTYYADSVKGRFTISRDNAKNTVYLHMNSLKPEDTAVYYCATRIYGWSFGSWYKYDYWGQGTQVTVSS”, the “polyreactivity (PSR sort gate)” value was “low polyreactivity”. With “QVQLVESGGGLVQAGASLRLSCAASGSIFYGNTMGWYRQAPGKERELVAAISSGGSTKYADSVKGRFTISRDNAKNTVYLQMNSLKPEDTAVYYCAADLPRYWVTWMDYWGQGTQVSVSS” the “polyreactivity (PSR sort gate)” value was “low polyreactivity”.
